The target of experiment [1] is ecto-domain of integrin α5β1-Fc fusion protein. Kind of experiment: SPR. On the technique in general: In SPR one partner is held on a chip, and binding of the other changes the refractive index at the surface.
The target in experiment [2] is Fn N-terminal domain fragment (Fn-NTD) (human). Kind of experiment: SPR. Conditions: domain or fragment.

One may read the Kd as the equilibrium constant for the complex coming apart. A low value points to higher affinity.

Chain of Fn N-terminal domain fragment (Fn-NTD) (human) (P02751 32-290): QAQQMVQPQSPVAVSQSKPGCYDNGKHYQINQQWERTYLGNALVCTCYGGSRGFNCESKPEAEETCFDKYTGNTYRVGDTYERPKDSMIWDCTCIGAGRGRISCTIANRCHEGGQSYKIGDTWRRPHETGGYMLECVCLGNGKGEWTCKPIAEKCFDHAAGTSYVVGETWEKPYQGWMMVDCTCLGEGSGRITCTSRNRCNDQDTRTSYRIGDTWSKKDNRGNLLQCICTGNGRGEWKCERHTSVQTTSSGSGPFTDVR

In experiment [1], “Fn + BBK32 (BBK32-bound Fn) (from UniProt O50835 21-205) (complex)” registered a dissociation constant Kd of 0.17 µM; a ka1 (first step, bivalent analyte model) of 75000 M⁻¹ s⁻¹; a ka2 (second step, bivalent analyte model) of 8e-06 RU^-1s^-1; a kd1 (first step, bivalent analyte model) of 0.012 s⁻¹. This substance yielded a kd2 (second step, bivalent analyte model) in experiment [1] of 0.001 s⁻¹.

Substance GST-FnBPA-3 showed a Kd in experiment [2] of 10 µM.

(Values after paper PMC4951027.)
